To fix the notation:
B1: Hairpin Ribozyme (parent)
chain: GUCCUCUUUCACGUGCGCGUGAAAGAGAGAAGUGAACCAGAGAAACACACGUUGUGGUAUAUUACCUGGUA

Variants of B1 are the subject of this series. Briefly: self-cleavage, relative activity (ratio to wild type); higher = more cleavage; co-transcriptional.
Consider G51U U55G, for which the self-cleavage turned out to be 0.222.

As for U52G A59U, the self-cleavage worked out at 0.177.

As to C50U U58C, the self-cleavage was found to be 0.232.

For the variant C50U U58A, the self-cleavage was 0.194.

In the case of U52G A64G, the self-cleavage amounted to 0.301.

Consider U52G A64C, for which the self-cleavage was 0.0463.

With G51U G56C, the self-cleavage came out at 0.201.

With A49U U63C, the self-cleavage is 0.172.

On to U52G C65G, for which the self-cleavage came to 0.266.

In the case of G51C U58C, the self-cleavage was 0.905.

Regarding G51C U58G, the self-cleavage is 0.433.

In the case of G51U U60A, the self-cleavage amounted to 1.11.

Regarding G54C G56C, the self-cleavage is 0.286.

Turning to A49U A71G, the self-cleavage worked out at 0.221.

Turning to A49U A71U, the self-cleavage worked out at 0.146.

Consider U53A U58G, for which the self-cleavage amounted to 0.603.

Consider G51A A59G, for which the self-cleavage was 0.25.

For the variant G51A A59U, the self-cleavage is 0.178.

As to A49G, the self-cleavage came to 0.57.

For A49U, the self-cleavage was 0.179.

For the variant G51C G68U, the self-cleavage turned out to be 0.227.

As to A49C U58G, the self-cleavage worked out at 0.286.

As to A49C U58C, the self-cleavage is 0.316.

Turning to G51A A61G, the self-cleavage came out at 0.269.

Take G51A A61U: the self-cleavage was 0.192.

U53C G54A: the self-cleavage amounted to 0.418.

As for U53G A61U, the self-cleavage amounted to 0.186.

As for C50G G56U, the self-cleavage was 0.124.

Consider C50G G56C, for which the self-cleavage stood at 0.0923.

Take C50G G56A: the self-cleavage amounted to 0.226.

For the variant U52C U63C, the self-cleavage was 0.226.

In the case of U52C U63A, the self-cleavage was determined as 0.206.

Take C50G G51A: the self-cleavage stood at 0.249.

Regarding C50G G51U, the self-cleavage is 0.375.

For A49C U63A, the self-cleavage was 0.0427.

Turning to A49C U63G, the self-cleavage worked out at 0.153.

For the variant A49U U60C, the self-cleavage was 0.331.

As for G54U A59U, the self-cleavage came to 0.178.

Turning to C50U C66U, the self-cleavage worked out at 0.159.

In the case of C50G U60A, the self-cleavage came out at 0.268.

Regarding C50G U60G, the self-cleavage was 0.158.

For the variant U52C U62C, the self-cleavage turned out to be 0.248.

Turning to G54A A59C, the self-cleavage amounted to 0.307.

In the case of G51C G57U, the self-cleavage was found to be 0.204.

For the variant G51C G57A, the self-cleavage was 0.147.

Consider C50A A71G, for which the self-cleavage came to 0.253.

Turning to U53C C66U, the self-cleavage turned out to be 0.69.

On to U53C C66A, for which the self-cleavage stood at 0.249.

Regarding A49U G51U, the self-cleavage came to 0.135.

U53G G69C: the self-cleavage worked out at 0.316.

Regarding U52G A61U, the self-cleavage stood at 0.0725.

U52G A61G: the self-cleavage was found to be 0.163.

Turning to G51U A64C, the self-cleavage turned out to be 0.188.

In the case of A49C U70A, the self-cleavage stood at 0.157.

For A49C U70G, the self-cleavage was 0.0833.

Regarding A49C U70C, the self-cleavage is 0.0597.

G51C A64U: the self-cleavage was determined as 0.0968.

As to U52A A59G, the self-cleavage is 0.159.

Turning to U52A A59C, the self-cleavage was 0.245.

In the case of U52A C66A, the self-cleavage worked out at 0.398.

On to C50A G51U, for which the self-cleavage was 0.399.

Consider U52A U53C, for which the self-cleavage was 1.32.

As for C50G A59U, the self-cleavage worked out at 0.112.

For the variant C50U C65U, the self-cleavage is 0.199.

Turning to C50A G56C, the self-cleavage amounted to 0.104.

As to C50A G56U, the self-cleavage worked out at 0.274.

Consider U53A U60G, for which the self-cleavage came out at 0.684.

With G54A U63G, the self-cleavage amounted to 0.172.

As for U53C U58A, the self-cleavage was 0.709.

For U53G G57C, the self-cleavage is 0.202.

As for C50U U70C, the self-cleavage worked out at 0.34.

On to C50U U70G, for which the self-cleavage is 0.178.

For A49G G68U, the self-cleavage came out at 0.215.

Take A49U G68C: the self-cleavage was 0.14.

Turning to A49U G68U, the self-cleavage is 0.128.

U52C G54U: the self-cleavage is 0.327.

As to U52C G54C, the self-cleavage stood at 0.0624.

For the variant U55A A64G, the self-cleavage was found to be 0.195.

In the case of U55A A61C, the self-cleavage turned out to be 0.104.

G54U U63C: the self-cleavage came out at 0.214.

With U53C G57A, the self-cleavage is 0.326.

As to U53C G57C, the self-cleavage came to 0.244.

For A49G A61C, the self-cleavage was 0.0946.

Consider U52A C65A, for which the self-cleavage turned out to be 1.06.

As to C50G U53C, the self-cleavage was 0.327.

C50A U60A: the self-cleavage was 0.388.

G54C C66A: the self-cleavage was 0.169.

With G54A U67G, the self-cleavage is 0.157.

As to G51U G54C, the self-cleavage was determined as 0.135.

Consider U53C A71U, for which the self-cleavage was 0.82.

On to G51C U67C, for which the self-cleavage was found to be 0.182.

In the case of G51C U67G, the self-cleavage amounted to 0.164.

As for G51U C66G, the self-cleavage amounted to 0.2.

In the case of A49U G54C, the self-cleavage stood at 0.28.

For U52G G69U, the self-cleavage amounted to 0.27.

Turning to C50U U60G, the self-cleavage is 0.205.

In the case of C50U U60C, the self-cleavage was 0.729.

Regarding G51C A71U, the self-cleavage was 0.722.

As to A49G U58C, the self-cleavage turned out to be 0.532.

For A49G U58G, the self-cleavage was 0.45.

With U53A U67C, the self-cleavage was 0.279.

As to U52G G56C, the self-cleavage amounted to 0.0868.

Take A49U A64U: the self-cleavage is 0.0352.

On to A49U U52A, for which the self-cleavage came out at 0.209.

Consider U53G G54A, for which the self-cleavage stood at 0.569.

On to G51U U67C, for which the self-cleavage came out at 0.299.

In the case of U53A A64G, the self-cleavage turned out to be 0.696.

Consider U53A A64C, for which the self-cleavage was determined as 0.122.

In the case of C50U G68A, the self-cleavage came out at 0.194.

With A49U A61C, the self-cleavage is 0.0823.

With G54A G68C, the self-cleavage stood at 0.208.

Consider C50G U63C, for which the self-cleavage was 0.114.

In the case of C50G U63A, the self-cleavage was determined as 0.177.

On to U52C U58C, for which the self-cleavage is 0.755.

Consider A49U C65G, for which the self-cleavage was 0.171.

For the variant A49G C65U, the self-cleavage is 0.107.

Consider A49G C65G, for which the self-cleavage came out at 0.184.

Take C50G G68C: the self-cleavage was determined as 0.0881.

For the variant U53A G69C, the self-cleavage turned out to be 0.19.

Turning to U53A G69U, the self-cleavage is 0.26.

For the variant G51A U63C, the self-cleavage was 0.109.

For the variant G51A U63A, the self-cleavage was determined as 0.175.

Regarding C50G G57C, the self-cleavage is 0.181.

For C50G G57A, the self-cleavage was 0.0857.

Consider C50A G54U, for which the self-cleavage was 0.97.

Turning to U53C U62C, the self-cleavage turned out to be 0.347.

Take C50U G56C: the self-cleavage was determined as 0.19.

Turning to G51C A59C, the self-cleavage worked out at 0.14.

As to G51C G56A, the self-cleavage came to 0.197.

For U52A U62A, the self-cleavage was found to be 0.24.

For G54A G56U, the self-cleavage is 0.104.

As to G54A G56A, the self-cleavage stood at 0.0848.

As for G51U G69C, the self-cleavage came out at 0.519.

In the case of U53G U70G, the self-cleavage came to 0.848.

Regarding A49G A64G, the self-cleavage worked out at 0.155.

On to A49G A64C, for which the self-cleavage amounted to 0.248.

Turning to G51C U55A, the self-cleavage came to 0.19.

G54C A64G: the self-cleavage turned out to be 0.18.

For C50A A61C, the self-cleavage turned out to be 0.173.

Regarding A49G U67A, the self-cleavage is 0.208.

In the case of G51C G54C, the self-cleavage came out at 0.215.

For the variant G51C G54U, the self-cleavage was found to be 0.404.

Regarding A49U U62G, the self-cleavage turned out to be 0.0483.

For G54A U55C, the self-cleavage came to 0.502.

As to C50A G68U, the self-cleavage was 0.15.

On to C50A G68C, for which the self-cleavage turned out to be 0.178.

Consider C50A G68A, for which the self-cleavage was 0.143.

Consider A49U A59C, for which the self-cleavage is 0.179.

Consider A49U A59U, for which the self-cleavage stood at 0.178.

Consider U52A G69C, for which the self-cleavage turned out to be 0.268.

Consider U53G U62G, for which the self-cleavage stood at 0.315.

For the variant G54U U67C, the self-cleavage is 0.106.

Consider A49G C50A, for which the self-cleavage stood at 0.249.

Regarding A49G C50U, the self-cleavage came out at 0.129.

In the case of U53G U60C, the self-cleavage is 1.12.

Turning to U53G U60A, the self-cleavage is 0.44.

With G51C A61G, the self-cleavage is 0.138.

For the variant G51C A61U, the self-cleavage was determined as 0.196.

Regarding C50U U62G, the self-cleavage is 0.158.

Turning to C50U U62C, the self-cleavage came to 0.0808.

In the case of G51A A71C, the self-cleavage is 1.49.

U52G U55G: the self-cleavage came out at 0.398.

For the variant U52G U55A, the self-cleavage is 0.135.

With U52G U55C, the self-cleavage turned out to be 0.193.

Take U55A C65U: the self-cleavage came to 0.21.

Consider G51U A61U, for which the self-cleavage was 0.25.

For the variant G51U A61G, the self-cleavage was found to be 0.112.

For the origin of these results see the RNAGym collection of RNA variant scans (doi:10.7554/elife.80360).
